Reference: article PMC3542976
Read-outs that look alike come from different tables or passages of the source.

B1: r(TSA3)/drd(BS) A3-bulged chimeric duplex (mixed)
RNA: GGGAGAGGCAAGUCGUUCGGUCGCGUUCGCAAAUGUCGUCGCGUCUUGUAUGCCACUGUACCC
DNA: GGGTACAGTGGCATACAAGACGCGACGACAGCGAACGCGACCGAACGACTTGCCTCTCCC
modifications: strand 2 is DNA22-RNA16-DNA22 (RNA at 23-38)
B2: r(TSA6)/drd(BS) A6-bulged chimeric duplex (mixed)
RNA: GGGAGAGGCAAGUCGUUCGGUCGCGUUCGCAAAAAAUGUCGUCGCGUCUUGUAUGCCACUGUACCC
DNA: GGGTACAGTGGCATACAAGACGCGACGACAGCGAACGCGACCGAACGACTTGCCTCTCCC
modifications: strand 2 is DNA22-RNA16-DNA22 (RNA at 23-38)

Key:
[1] = molecular target: PKR K296R full length (UniProt P19525 1-551, K296R); assay: EMSA
Chain of PKR K296R full length (P19525 whole entry K296R): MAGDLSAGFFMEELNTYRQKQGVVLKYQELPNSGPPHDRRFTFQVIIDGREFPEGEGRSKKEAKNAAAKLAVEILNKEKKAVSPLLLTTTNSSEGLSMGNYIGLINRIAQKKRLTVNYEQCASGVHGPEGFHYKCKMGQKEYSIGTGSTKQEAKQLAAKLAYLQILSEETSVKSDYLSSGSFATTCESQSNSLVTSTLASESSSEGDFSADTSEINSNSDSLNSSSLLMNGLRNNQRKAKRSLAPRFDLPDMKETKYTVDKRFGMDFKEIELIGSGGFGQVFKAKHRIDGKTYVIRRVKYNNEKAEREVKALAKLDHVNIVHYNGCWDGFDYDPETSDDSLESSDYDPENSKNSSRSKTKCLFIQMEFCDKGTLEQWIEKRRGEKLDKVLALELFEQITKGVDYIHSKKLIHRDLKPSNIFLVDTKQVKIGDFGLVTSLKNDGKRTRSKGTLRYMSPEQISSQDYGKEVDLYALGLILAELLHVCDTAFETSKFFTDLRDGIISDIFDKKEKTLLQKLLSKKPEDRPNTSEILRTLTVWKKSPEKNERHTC

[2] = molecular target: T1, p20 (dsRBD of PKR) (UniProt P19525 1-184); assay: SAXS
T1 sequence (P19525 1-184): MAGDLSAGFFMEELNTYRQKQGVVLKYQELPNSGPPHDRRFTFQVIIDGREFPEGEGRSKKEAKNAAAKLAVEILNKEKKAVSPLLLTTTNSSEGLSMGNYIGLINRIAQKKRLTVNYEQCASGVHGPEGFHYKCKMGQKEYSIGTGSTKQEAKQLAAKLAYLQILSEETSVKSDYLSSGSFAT

[3] = molecular target: T1, p20 (dsRBD of PKR); assay: SAXS; remark: listed apart in the source

| Binder | binding result [1] | binding result [2] | binding result [3] |
| --- | --- | --- | --- |
| B1 | binds | binds | – |
| B2 | binds | – | binds |
